Assay results taken from patent US20200057047A1 (NATIONAL HEALTH RESEARCH INSTITUTES, published 2020).

Molecular target: T1, Myc-tagged IQGAP1 (wild type) (Homo sapiens (Human), UniProt P46940 1-1657, phosphoserine at 480 where phosphorylated by GLK, as the filing reports)
T1 construct: the same molecule is used here; also called Myc-IQGAP1; IQGAP1 WT; not shown: Myc tag
Test: co-IP of anti-Flag immunocomplexes, HEK293T cells treated with 25 µM pervanadate (FIG. 18E)
Experimental: (A) Silver-stained gel of anti-Flag immunoprecipitates from HEK293T cells transfected with empty vector or Flag-tagged GLK in the presence or absence of the tyrosine phosphatase inhibitor pervanadate (25 μM). Arrows indicate the positions of GLK or GLK-interacting proteins. (B) Four pervanadate-induced tyrosine phosphorylation residues of GLK proteins were listed. (C and D) Co-immunoprecipitation of anti-Flag (C) or anti-Myc (D) immunocomplexes from lysates of HEK293T cells transfected with Flag-tagged GLK, Myc-tagged IQGAP1, or both plasmids. The whole-cell lysate immunoblots before immunoprecipitation (Pre-IP) are shown at the bottom of each panel. β-Tubulin was used as the loading control. (E) Co-immunoprecipitation of anti-Flag immunocomplexes from lysates of HEK293T cells transfected with either Flag-tagged GLK or Flag-tagged GLK mutant (Y366F, Y379F, Y574F, or Y735F). HEK293T cells were treated with 25 μM pervanadate for 2 h (F) In situ PI A of HEK293T cells transfected with empty vector, 3× Flag-tagged GLK, Myc-tagged IQGAP1, or GLK together with IQGAP1 plasmids. Arrows indicate the PLA signals (red spots). Original magnification, ×40. Scale bar, 10 μm. (G) The relative PLA signal of each group per field is shown on the plot. (H) FRET assays of HEK293T cells transfected with the indicated plasmids encoding CFP- and YFP-fused GLK and IQGAP1 proteins. […]

T1 sequence (P46940 whole entry): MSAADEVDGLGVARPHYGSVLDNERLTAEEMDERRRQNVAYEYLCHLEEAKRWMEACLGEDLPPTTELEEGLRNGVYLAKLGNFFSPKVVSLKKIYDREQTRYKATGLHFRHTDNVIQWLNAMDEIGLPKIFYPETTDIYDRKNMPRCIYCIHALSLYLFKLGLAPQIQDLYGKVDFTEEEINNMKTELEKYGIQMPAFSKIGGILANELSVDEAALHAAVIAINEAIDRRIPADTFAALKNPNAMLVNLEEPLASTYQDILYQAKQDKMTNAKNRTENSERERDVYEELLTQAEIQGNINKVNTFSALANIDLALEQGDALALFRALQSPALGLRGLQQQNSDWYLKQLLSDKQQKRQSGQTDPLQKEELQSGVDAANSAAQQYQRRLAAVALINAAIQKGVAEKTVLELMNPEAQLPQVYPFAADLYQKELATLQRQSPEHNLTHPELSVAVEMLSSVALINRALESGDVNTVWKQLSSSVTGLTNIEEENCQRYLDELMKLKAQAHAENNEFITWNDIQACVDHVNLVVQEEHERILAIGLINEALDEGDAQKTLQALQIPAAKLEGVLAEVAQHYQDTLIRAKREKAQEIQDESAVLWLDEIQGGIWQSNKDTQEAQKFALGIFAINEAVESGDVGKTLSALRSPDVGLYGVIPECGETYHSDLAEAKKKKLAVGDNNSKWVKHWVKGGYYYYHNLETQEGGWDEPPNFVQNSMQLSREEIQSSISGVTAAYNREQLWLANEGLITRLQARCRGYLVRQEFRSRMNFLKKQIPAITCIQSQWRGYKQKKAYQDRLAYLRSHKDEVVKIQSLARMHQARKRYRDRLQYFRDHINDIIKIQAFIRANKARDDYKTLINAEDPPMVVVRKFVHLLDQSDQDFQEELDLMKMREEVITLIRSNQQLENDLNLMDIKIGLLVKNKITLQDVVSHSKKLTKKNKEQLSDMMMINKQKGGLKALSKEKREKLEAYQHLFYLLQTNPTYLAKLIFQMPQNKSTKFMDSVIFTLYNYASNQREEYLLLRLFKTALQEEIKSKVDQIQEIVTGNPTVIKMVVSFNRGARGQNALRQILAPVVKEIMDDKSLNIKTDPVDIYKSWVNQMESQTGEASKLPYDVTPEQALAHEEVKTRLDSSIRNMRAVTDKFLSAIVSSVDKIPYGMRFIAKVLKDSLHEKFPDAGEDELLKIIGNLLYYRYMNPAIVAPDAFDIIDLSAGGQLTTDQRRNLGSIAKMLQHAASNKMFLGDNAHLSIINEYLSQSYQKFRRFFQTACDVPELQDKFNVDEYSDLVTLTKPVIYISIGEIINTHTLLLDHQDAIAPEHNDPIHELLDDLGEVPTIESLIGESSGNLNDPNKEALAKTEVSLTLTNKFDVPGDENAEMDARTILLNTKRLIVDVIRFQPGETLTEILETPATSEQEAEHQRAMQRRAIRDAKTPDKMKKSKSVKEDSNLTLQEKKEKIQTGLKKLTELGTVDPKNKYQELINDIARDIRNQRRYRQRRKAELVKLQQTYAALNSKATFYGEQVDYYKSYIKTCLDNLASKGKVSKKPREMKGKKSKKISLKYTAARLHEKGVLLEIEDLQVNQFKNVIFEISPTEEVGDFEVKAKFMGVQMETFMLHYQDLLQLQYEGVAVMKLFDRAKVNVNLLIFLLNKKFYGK

- binding result: no binding
B1: Flag-tagged GLK (Y735F) mutant (enzyme)
chain: DYKDDDDKMNPGFDLSRRNPQEDFELIQRIGSGTYGDVYKARNVNTGELAAIKVIKLEPGEDFAVVQQEIIMMKDCKHPNIVAYFGSYLRRDKLWICMEFCGGGSLQDIYHVTGPLSELQIAYVSRETLQGLYYLHSKGKMHRDIKGANILLTDNGHVKLADFGVSAQITATIAKRKSFIGTPYWMAPEVAAVERKGGYNQLCDLWAVGITAIELAELQPPMFDLHPMRALFLMTKSNFQPPKLKDKMKWSNSFHHFVKMALTKNPKKRPTAEKLLQHPFVTQHLTRSLAIELLDKVNNPDHSTYHDFDDDDPEPLVAVPHRIHSTSRNVREEKTRSEITFGQVKFDPPLRKETEPHHELPDSDGFLDSSEEIYYTARSNLDLQLEYGQGHQGGYFLGANKSLLKSVEEELHQRGHVAHLEDDEGDDDESKHSTLKAKIPPPLPPKPKSIFIPQEMHSTEDENQGTIKRCPMSGSPAKPSQVPPRPPPPRLPPHKPVALGNGMSSFQLNGERDGSLCQQQNEHRGTNLSRKEKKDVPKPISNGLPPTPKVHMGACFSKVFNGCPLKIHCASSWINPDTRDQYLIFGAEEGIYTLNLNELHETSMEQLFPRRCTWLYVMNNCLLSISGKASQLYSHNLPGLFDYARQMQKLPVAIPAHKLPDRILPRKFSVSAKIPETKWCQKCCVVRNPYTGHKYLCGALQTSIVLLEWVEPMQKFMLIKHIDFPIPCPLRMFEMLVVPEQEFPLVCVGVSRGRDFNQVVRFETVNPNSTSSWFTESDTPQTNVTHVTQLERDTILVCLDCCIKIVNLQGRLKSSRKLSSELTFDFQIESIVCLQDSVLAFWKHGMQGRSFRSNEVTQEISDSTRIFRLLGSDRVVVLESRPTDNPTANSNLYILAGHENSY
